Data as given in PMC3506619 (PLoS ONE, 2012).

B2: refolded methionine adenosyltransferase II catalytic α2 subunit (human MAT2A) (enzyme)
chain: not shown
notes: human MAT2A ORF from lymphocyte RNA, non-tagged; all cloned ORFs carried A233V and G193S against previously reported cDNAs; Dimer by gel filtration at low concentration, dimer and tetramer at higher concentration; Runs as a double band (α2 and α2′) on SDS-PAGE; The ITC methods say only 'α2 subunit'; also called MAT α2

Key:
[1] = biological target: B2; assay: SEC; equimolar refolded α2 and β (wild type, mutant or truncated) mixed 1 h at 4°C, hetero-oligomer isolated on Biogel A 1.5 m in 50 mM Tris/HCl pH 8, 10 mM MgSO4, 50 mM KCl; peak on SDS-PAGE, densitometric scanning of Coomassie-stained bands; conditions: both partners purified
[2] = biological target: the molecule itself; assay: SEC; analytical gel filtration on Superose 12 10/300 GL, refolded α2 50 µg injected, 20 mM Tris/HCl pH 8, 10 mM MgSO4, 150 mM KCl; detection by MAT activity and dot blot
[3] = biological target: the molecule itself; assay: SEC; analytical gel filtration on Superose 12 10/300 GL, refolded α2 at higher protein concentration (200 µg injected), 20 mM Tris/HCl pH 8, 10 mM MgSO4, 150 mM KCl; detection by MAT activity and dot blot

B1: ΔS16 truncated β subunit of methionine adenosyltransferase II (domain or fragment, human)
chain: GSHSCRLVEEEVNIPNRRVLVTGATGLLGRAVHKEFQQNNWHAVGCGFRRARPKFEQVNLLDSNAVHHIIHDFQPHVIVHCAAERRPDVVENQPDAASQLNVDASGNLAKEAAAVGAFLIYISSDYVFDGTNPPYREEDIPAPLNLYGKTKLDGEKAVLENNLGAAVLRIPILYGEVEKLEESAVTVMFDKVQFSNKSANMDHWQQRFPTHVKDVATVCRQLAEKRMLDPSIKGTFHWSGNEQMTKYEMACAIADAFNLPSSHLRPITDSPVLGAQRPRNAQLDCSKLETLGIGQRTPFRIGIKESLWPFLIDKRWRQTVFH
B1 was tested, and the “(α2+α2′)/β subunit ratio” value [1] was 2.

B2 was tested, and the “stoichiometry N” value [2] was 2 and the “stoichiometry N” value [3] was 4.
